Test results: article PMC6294707 (Molecular and cellular neurosciences, 2018)

T1: SAP90/PSD-95 associated protein 3 (endogenous, mouse brain) (mouse (endogenous in striatum), UniProt Q6PFD5 1-977)
T1 sequence (looked up): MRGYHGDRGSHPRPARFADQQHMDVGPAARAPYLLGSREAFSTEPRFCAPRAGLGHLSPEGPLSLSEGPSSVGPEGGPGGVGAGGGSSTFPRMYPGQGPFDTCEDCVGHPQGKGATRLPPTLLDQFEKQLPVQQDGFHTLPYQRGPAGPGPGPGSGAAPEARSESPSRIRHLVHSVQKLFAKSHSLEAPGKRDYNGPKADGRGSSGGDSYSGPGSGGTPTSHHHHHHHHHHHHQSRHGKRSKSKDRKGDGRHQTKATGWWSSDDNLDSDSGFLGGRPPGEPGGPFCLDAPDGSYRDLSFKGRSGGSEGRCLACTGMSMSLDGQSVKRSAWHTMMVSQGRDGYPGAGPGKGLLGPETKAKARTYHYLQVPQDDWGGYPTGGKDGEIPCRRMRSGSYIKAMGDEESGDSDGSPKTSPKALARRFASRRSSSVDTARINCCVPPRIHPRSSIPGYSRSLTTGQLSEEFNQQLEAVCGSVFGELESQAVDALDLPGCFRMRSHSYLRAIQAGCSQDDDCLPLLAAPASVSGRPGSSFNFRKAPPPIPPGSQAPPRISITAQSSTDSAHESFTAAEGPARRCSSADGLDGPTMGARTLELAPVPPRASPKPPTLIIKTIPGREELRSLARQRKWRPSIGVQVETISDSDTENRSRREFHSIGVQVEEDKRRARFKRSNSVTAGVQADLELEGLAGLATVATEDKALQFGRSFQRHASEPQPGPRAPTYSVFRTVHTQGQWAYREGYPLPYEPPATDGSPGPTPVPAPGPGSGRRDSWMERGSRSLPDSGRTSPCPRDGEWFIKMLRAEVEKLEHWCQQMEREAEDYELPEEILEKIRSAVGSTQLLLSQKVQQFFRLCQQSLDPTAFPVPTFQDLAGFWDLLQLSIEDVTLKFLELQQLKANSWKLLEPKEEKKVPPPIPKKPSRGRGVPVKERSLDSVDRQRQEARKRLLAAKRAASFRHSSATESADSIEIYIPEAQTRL


How the values were obtained:
[1] = target: HA-tagged spinophilin (human, full-length) (human, UniProt Q96SB3 1-817); assay: co-IP
HA-tagged spinophilin (human, full-length), sequence (Q96SB3 whole entry): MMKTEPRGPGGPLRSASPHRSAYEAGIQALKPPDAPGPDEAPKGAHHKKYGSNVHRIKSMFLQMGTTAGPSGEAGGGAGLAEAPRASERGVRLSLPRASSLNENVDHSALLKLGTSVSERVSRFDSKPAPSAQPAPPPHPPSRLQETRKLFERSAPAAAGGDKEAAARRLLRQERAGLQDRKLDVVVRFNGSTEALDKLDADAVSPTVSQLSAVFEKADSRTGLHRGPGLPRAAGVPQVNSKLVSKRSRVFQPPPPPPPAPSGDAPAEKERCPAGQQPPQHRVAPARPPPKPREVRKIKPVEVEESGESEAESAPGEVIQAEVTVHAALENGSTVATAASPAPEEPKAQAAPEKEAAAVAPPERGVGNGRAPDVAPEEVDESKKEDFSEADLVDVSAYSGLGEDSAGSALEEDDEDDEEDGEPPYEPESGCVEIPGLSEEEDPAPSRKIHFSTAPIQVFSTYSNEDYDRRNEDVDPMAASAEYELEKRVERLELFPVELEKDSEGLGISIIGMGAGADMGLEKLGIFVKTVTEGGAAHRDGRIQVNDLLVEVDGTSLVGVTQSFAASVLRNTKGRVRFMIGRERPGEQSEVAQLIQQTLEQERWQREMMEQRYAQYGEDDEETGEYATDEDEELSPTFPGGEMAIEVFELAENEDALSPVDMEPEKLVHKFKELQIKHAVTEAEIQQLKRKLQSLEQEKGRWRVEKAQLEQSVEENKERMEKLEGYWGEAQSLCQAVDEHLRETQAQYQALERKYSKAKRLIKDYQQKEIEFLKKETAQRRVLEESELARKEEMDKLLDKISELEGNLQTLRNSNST

[2] = target: T1, SAP90/PSD-95 associated protein 3 …; assay: co-IP

Row | fold change of association, PKCbeta overexpressed and activated over control [1] | fold change of association, mGluR5 overexpressed over control [1] | fold greater association, WT over SAPAP3 KO [2] | Binder
1 | ~3.3 fold | ~12 fold |  | V5-tagged SAPAP3 (rat) (natural protein, UniProt P97838 1-977, looked up) MRGYHGDRGSHPRPARFADQQHMDVGPAARAPYLLGSREAFSTEPRFCAPRAGLGHLSPEGPLSLSEGPSSVGPEGGPGGVGAGGSSSTFPRMYPGQGPFDTCEDCVGHPQGKGATRLLPTFLDQFEKQLPVQQDGFHTLPYQRGPAGPGPGPGSGAAPEARSESPSRIRHLVHSVQKLFAKSHSLEAPGKRDYNGPKAEGRSSSGGDSYSGPGSGGPPTSHHHHHHHHHHHHQSRHGKRSKSKDRKGDGRHQTKATGWWSSDDNLDSDSGFLGGRPPGEPGGPFCLDAPDGSYRDLSFKGRSGGSEGRCLACTGMSMSLDGQSVKRSAWHTMMVSQGRDGYPGAGPGKGLLGPETKAKARTYHYLQVPQDDWGGYPTGGKDGEIPCRRMRSGSYIKAMGDEESGDSDGSPKTSPKALARRFASRRSSSVDTARINCCVPPRIHPRSSIPGYSRSLTTGQLSEEFNQQLEAVCGSVFGELESQAVDALDLPGCFRMRSHSYLRAIQAGCSQDDDCLPLLAAPASVSGRPGSSFNFRKAPPPIPPGSQAPPRISITAQSSTDSAHESFTAAEGPARRCSSADGLDGPTMGARTLELAPVPPRASPKPPTLIIKTIPGREELRSLARQRKWRPSIGVQVETISDSDTENRSRREFHSIGVQVEEDKRRARFKRSNSVTAGVQADLELEGLAGLATVATEDKALQFGRPFQRQASEPQPGPRAPTYSVFRTVHTQGQWAYREGYPLPYEPPATDGSPGPPPVPAPGPGSGRRDSWMERGSRSLPDSGRTSPCPRDGEWFIKMLRAEVEKLEHWCQQMEREAEDYELPEEILEKIRSAVGSTQLLLSQKVQQFFRLCQQSLDPTAFPVPTFQDLAGFWDLLQLSIEDVTLKFLELQQLKANSWKLLEPKEEKKVPPPIPKKPSRGRGVPVKERSLDSVDRQRQEARKRLLAAKRAASFRHSSATESADSIEIYIPEAQTRL
2 |  |  | ~3 fold | spinophilin (endogenous, mouse brain) (natural protein) not shown
